{"source": "patent US20220153822A1", "about": "(ALYTAS THERAPEUTICS, published 2022)", "binders": {"B1": {"name": "Antibody No. 7 (antibody, V domains shown)", "VH": "QVQLVQSGGSVVQPGRSLRLSCAASGFTFSSYAMHWVRQAPGKGLEWVAVISYDGSNKYYADSVKGRFTISRDNSKNTLYLQMNSLRAEDTAVYYCARFASIAARPFDYWGQGTLVTVSS", "VL": "not shown", "notes": "human IgG1, lambda or kappa light chain; also called 448-D02"}, "B2": {"name": "Antibody No. 9 (antibody, V domains shown)", "VH": "QVQLVQSGGGVVQPGRSLRLSCAASGFTFSSYGMHWVRQAPGKGLEWVAVISYDGSNKYYADSVKGRFTISRDNSKNTLYLQMNSLRAEDTAVYYCANNPSSGADYWGQGTLVTVSS", "VL": "not shown", "notes": "human IgG1, lambda or kappa light chain; also called 448-G01"}, "B3": {"name": "Antibody No. 5 (antibody, V domains shown)", "VH": "QVQLVESGGGVVQPGRSLRLSCAASGFTFSSYAMHWVRQAPGKGLEWVAVISYDGSNKYYADSVKGRFTISRDNSKNTLYLQMNSLRAEDTAVYYCARIAAAGPFDYWGQGTLVTVSS", "VL": "SYVLTQPPSVSEAPRQRVTISCSGSSSNIGNNAVNWYQQLPGKAPKLLIYYDDLLPSGVSDRFSGSKSGTSASLAISGLQSEDEADYYCAAWDDSLNGVVFGGGTKLTVL", "notes": "human IgG1, lambda or kappa light chain; also called 438-G12; antibody #5"}, "B4": {"name": "Antibody No. 6 (antibody, V domains shown)", "VH": "not shown", "VL": "QSALTQPASVSGSPGQSITISCTGTSSDVGGYNYVSWYQQHPGKAPKLMIYDVSNRPSGVSNRFSGSKSGNTASLTISGLQAEDEADYYCSSYTSSSTHVVFGGGTKLTVL", "notes": "human IgG1, lambda or kappa light chain; also called 448-B03"}, "B5": {"name": "Antibody No. 8 (antibody, V domains shown)", "VH": "QVQLVESGAEVKKPGASVKVSCKASGYTFTSYGISWVRQAPGQGLEWMGWISAYNGNTNYAQKLQGRVTMTTDTSTSTAYMELRSLRSDDTAVYYCARGGSSSNYWGQGTLVTVSS", "VL": "QSALTQPASVSGSPGQSITISCTGTSSDVGGYNYVSWYQQHPGKAPKLMIYEVSNRPSGVSNRFSGSKSGNTASLTISGLQAEDEADYYCSSYTSSSTLVFGGGTKLTVL", "notes": "human IgG1, lambda or kappa light chain; also called 448-E03"}, "B6": {"name": "Antibody No. 10 (antibody, V domains shown)", "VH": "EVQLVQSGAEVKKPGSSVKISCKASGGTFSSYAISWVRQAPGQGLEWMGGIIPIFGTANYAQKFQGRVTITADESTSTAYMELSSLRSEDTAVYYCARSHSSGWEWWGQGTLVTVSS", "VL": "not shown", "notes": "human IgG1, lambda or kappa light chain; also called 439-E10"}, "B7": {"name": "Antibody No. 11 (antibody, V domains shown)", "VH": "QVQLVQSGAEVKKPGASVKVSCKASGYTFTSYGISWVRQAPGQGLEWMGWISAYNGNTNYAQKLQGRVTMTTDTSTSTAYMELRSLRSDDTAVYYCASLYCSGGSCYSALDPWGQGTLVTVSS", "VL": "QSVLTQPPSVSGAPGQRVTISCTGSSSNIGAGYDVHWYQQLPGTAPKLLIYGNSNRPSGVPDRFSGSKSGTSASLAITGLQAEDEADYYCQSYDSSLRYVVFGGGTKVTVL", "notes": "human IgG1, lambda or kappa light chain; also called 447-D12"}, "B8": {"name": "Antibody No. 16 (antibody, V domains shown)", "VH": "QVQLVEFGGGVVQPGRSLRLSCAASGFTFSSYGMHWVRQAPGKGLEWVAAISYDGSNKYYADSVKGRFTISRDNSKNTLYLQMNSLRAEDTAVYYCAKDMGLSWYGEFDYWGQGTLVTVSS", "VL": "QSVLTQPPSVSEAPRQRVTISCSGSSSNIGNNAVSWYQQLPGKAPKLLIYYDDLLPSGVSDRFSGSKSGTSASLAISGLQSEDEADYYCAAWDDSLNWVFGGGTKLTVL", "notes": "human IgG1, lambda or kappa light chain; also called 447-B05"}, "B9": {"name": "Antibody No. 22 (antibody, V domains shown)", "VH": "QVQLVESGGGVVQPGRSLRLSCAASGFTFSSYGMHWVRQAPGKGLEWVAVISYDGSNKYYADSVKGRFTISRDNSKNTLYLQMNSLRAEDTAVYYCANTPGGLTPFDYWGQGTLVTVSS", "VL": "not shown", "notes": "human IgG1, lambda or kappa light chain; also called 447-H03"}, "B10": {"name": "Antibody No. 36 (antibody, V domains shown)", "VH": "B2 VH with Q1E, Q6E, G33A, N98R, N99D, S101L, S102Y, A104M, Y106V", "VL": "QSVLTQPPSASGSPGQSVTISCTGTSSDVGNYNYVSWFQQHPGKAPKLMIYEVSKRPSGVPDRFSGSKSGNTASLTVSGLQAEDEADYYCASYADSNNLYVFGTGTKLTVL", "notes": "human IgG1, lambda or kappa light chain; also called 447-B03"}, "B11": {"name": "Antibody No. 18 (antibody, V domains shown)", "VH": "EVQLLESGGGLVQPGRSLRLACVASGFTFDDYGMHWVRQAPGKGLEWVAVISYDGSNKYYADSVKGRFTISRDNSKNTLYLQMNSLRAEDTAVYYCAKAYGEGGFDPWGQGTLVTVSS", "VL": "B4 VL with D52E, H99T, V100W, L108V", "notes": "human IgG1, lambda or kappa light chain; also called 447-D03"}, "B12": {"name": "Antibody No. 17 (antibody, V domains shown)", "VH": "EVQLVQSGGGVVQPGRSLRLSCAASGFTFSSYGMHWVRQAPGKGLEWVAVISYDGSNKYYADSVKGRFTISRDNSKNTLYLQMNSLRAEDTAVYYCAKDIFMDVWGQGTMVTVSS", "VL": "B4 VL with H99L", "notes": "human IgG1, lambda or kappa light chain; also called 447-C04"}, "B13": {"name": "Antibody No. 37 (antibody, V domains shown)", "VH": "QVQLVQSGAEVKKPGASVKVSCKASGYTFTSYYMHWVRQAPGQGLEWMGIINPSGGSTSYAQKFQGRVTMTRDTSTSTVYMELSSLRSEDTAVYYCARDSYYDSSGYYYADAFDIWGQGTMVTVSS", "VL": "QSVLTQPPSVSGAPGQRVTISCTGSSSNIGAGYDVHWYQQLPGTAPKLLIYGNSNRPSGVPDRFSGSKSGTSASLAITGLQAEDEADYYCQSYDSSLSGDVVFGGGTKLTVL", "notes": "human IgG1, lambda or kappa light chain; also called 447-F02"}, "B14": {"name": "Antibody No. 35 (antibody, V domains shown)", "VH": "QVQLVQSGAEVKKPGTTVKISCKVSGYSFTDYYMHWVQQAPGKGLEWMGLVDPEDGETLYAEKFQGRVTITVDTSTDTAYMELSSLRSEDTAVYYCAAEPQMVQGPSPPDYWGQGTLVTVSS", "VL": "B5 VL with N33S, E52D, V100L", "notes": "human IgG1, lambda or kappa light chain; also called 447-E03"}, "B15": {"name": "Antibody No. 21 (antibody, V domains shown)", "VH": "QVQLVESGGGLVQPGRSLRLSCAASGFTFDDYAMHWVRQAPGKGLEWVSGISWNSGSIGYADSVKGRFTISRDNAKNSLYLQMNSLRAEDTALYYCAKEGEYSYGGGEFDPWGQGTLVTVSS", "VL": "B5 VL with E52D, L99W", "notes": "human IgG1, lambda or kappa light chain; also called 447-G03"}, "B16": {"name": "Antibody No. 19 (antibody, V domains shown)", "VH": "QVQLVQSGGGVVQPRRSLRLSCAASGFTFSSYAMHWVRQAPGKGLEWVAVISYDGSNKYYADPVKGRFTISRDNSKNTLYLQMNSLRAEDTAVYYCARGGDGYNWDAFDIWGQGTMVTVSS", "VL": "not shown", "notes": "human IgG1, lambda or kappa light chain; also called 447-D04"}, "B17": {"name": "Antibody No. 38 (antibody, V domains shown)", "VH": "EVQLVQSGAEVKKPGASVKVSCKASGYTFTSYYMHWVRQAPGQGLEWMGIINPSGGSTSYAQKFQGRVTMTRDTSTSTVYMELSSLRSEDTAVYYCARNVPGDYEVGFDYWGQGTLVTVSS", "VL": "B7 VL with R98S, Y99A, V108L", "notes": "human IgG1, lambda or kappa light chain; also called 447-A05"}, "B18": {"name": "Antibody No. 14 (antibody, V domains shown)", "VH": "QVQLVESGGGLVQPGRSLRLSCAASGFTFDDYAMHWVRQAPGKGLEWVSGISWNSGSIGYADSVKGRFTISRDNAKNSLYLQMNSLRAEDTALYYCAKEGYGNDAFDIWGQGTMVTVSS", "VL": "not shown", "notes": "human IgG1, lambda or kappa light chain; also called 432-H10"}}, "note": "Positions count from the first letter of the chain named."}
{"target": "T1, Perilipin epitope 1 peptide NKGLTLLDGDLPEQE (SEQ ID NO. 330) (human, Biotin-PEG Spacer and GGSGGS Linker (SEQ ID NO. 438) at the N-terminus, or Biotin-PEG Spacer and AAAAA Linker (SEQ ID NO. 439) at the C-terminus)", "T1 construct": "Two biotinylated variants were used for selection and ELISA; On the peptide array it stood without biotin; also called target peptide", "T1 peptide": "NKGLTLLDGDLPEQE", "test": "phage display selection and ELISA on biotinylated target peptide"}
{"binder": "B1", "binding result": "binds"}
{"binder": "B2", "binding result": "binds"}
{"binder": "B3", "binding result": "binds"}
{"binder": "B4", "binding result": "binds"}
{"binder": "B5", "binding result": "binds"}
{"target": "T2, Perilipin epitope 2 peptide QYPPEKIASELKDTI (SEQ ID NO. 331) (human, Biotin-PEG Spacer and GGSGGS Linker (SEQ ID NO. 438) at the N-terminus, or Biotin-PEG Spacer and AAAAA Linker (SEQ ID NO. 439) at the C-terminus)", "T2 construct": "Two biotinylated variants were used for selection and ELISA; On the peptide array it stood without biotin; also called target peptide", "T2 peptide": "QYPPEKIASELKDTI", "test": "phage display selection and ELISA on biotinylated target peptide"}
{"binder": "B6", "binding result": "binds"}
{"binder": "B7", "binding result": "binds"}
{"target": "T3, Perilipin epitope 5 peptide AKPSLLSRVGALTNT (SEQ ID NO. 332) (human, Biotin-PEG Spacer and GGSGGS Linker (SEQ ID NO. 438) at the N-terminus, or Biotin-PEG Spacer and AAAAA Linker (SEQ ID NO. 439) at the C-terminus)", "T3 construct": "Two biotinylated variants were used for selection and ELISA; On the peptide array it stood without biotin; also called target peptide", "T3 peptide": "AKPSLLSRVGALTNT", "test": "phage display selection and ELISA on biotinylated target peptide"}
{"binder": "B8", "binding result": "binds"}
{"binder": "B9", "binding result": "binds"}
{"binder": "B10", "binding result": "binds"}
{"binder": "B11", "binding result": "binds"}
{"binder": "B12", "binding result": "binds"}
{"binder": "B13", "binding result": "binds"}
{"binder": "B14", "binding result": "binds"}
{"binder": "B15", "binding result": "binds"}
{"binder": "B16", "binding result": "binds"}
{"binder": "B17", "binding result": "binds"}
{"binder": "B18", "binding result": "binds"}
